Values of other authors, collected in PMC6109845.

Target: HIF-1α 19-mer peptide (Homo sapiens) (UniProt Q16665)

von Hippel-Lindau E3 ubiquitin ligase (VHL), sequence (P40337 whole entry): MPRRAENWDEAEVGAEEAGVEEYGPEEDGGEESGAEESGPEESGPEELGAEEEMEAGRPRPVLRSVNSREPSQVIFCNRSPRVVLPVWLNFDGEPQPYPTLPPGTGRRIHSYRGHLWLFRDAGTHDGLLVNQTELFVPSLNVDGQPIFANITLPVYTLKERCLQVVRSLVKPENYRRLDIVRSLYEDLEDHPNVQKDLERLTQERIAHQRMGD

Substance: von Hippel-Lindau E3 ubiquitin ligase (VHL) (from UniProt P40337)
- Kd: 3 nM
